Data set [1] has as its target T1, YTHDC1 YTH domain (Homo sapiens, UniProt Q96MU7 345-509). Kind of data set: ITC. (ITC needs no label: the signal is the heat of the interaction.)
Data set [2] addresses T1, YTHDC1 YTH domain. Put plainly: X-ray crystallography.

Regarding CGCGGACTCTG (ssDNA, none) [unmodified 11-nt ssDNA], the binding result in data set [1] is “no binding”.
Turning to CGCGGACUCUG (ssRNA, none) [unmodified 11-nt ssRNA], the binding result in data set [1] is on record as “no binding”.
For CGCGGACTCTG (ssDNA, N6-methyladenine at A6) [11-nt N6mA ssDNA], binding in data set [1] was put at a Kd of 0.01 µM.
In the case of CGCGGACTTC (ssDNA, N6-methyladenine at A6) [10-nt N6mA ssDNA], the binding result in data set [2] is listed as “binds”.

The record behind these values is PMC7544203.
